Details in all cases: 50 mM citrate buffer, 10% (v/v) DMSO
Data set [1] deals with COc1cc(-c2oc3cc(O)cc(O)c3c(=O)c2O[C@@H]2O[C@H](CO[C@@H]3O[C@@H](C)[C@H](O)[C@@H](O)[C@H]3O)[C@@H](O)[C@H](O)[C@H]2O)ccc1O. Description: purified protein.
Data set [2] relates to COc1ccc([C@@H]2CC(=O)c3c(O)cc(O[C@@H]4O[C@H](CO[C@@H]5O[C@@H](C)[C@H](O)[C@@H](O)[C@H]5O)[C@@H](O)[C@H](O)[C@H]4O)cc3O2)cc1O. Description: purified protein.
Data set [3] deals with C[C@@H]1O[C@@H](OC[C@H]2O[C@@H](Oc3c(-c4ccc(O)c(O)c4)oc4cc(O)cc(O)c4c3=O)[C@H](O)[C@@H](O)[C@@H]2O)[C@H](O)[C@H](O)[C@H]1O. Description: purified protein.
Data set [4] concerns O=c1c(O[C@@H]2O[C@H](CO)[C@@H](O)[C@H](O)[C@H]2O)c(-c2ccc(O)c(O)c2)oc2cc(O)cc(O)c12. Description: purified protein.
Substrate in data set [5]: COc1cc(-c2oc3cc(O)cc(O)c3c(=O)c2O[C@@H]2O[C@H](CO[C@@H]3O[C@@H](C)[C@H](O)[C@@H](O)[C@H]3O)[C@@H](O)[C@H](O)[C@H]2O)ccc1O
Description: hydrolysis, aglycone release by HPLC. In kind it is biochemical, Penicillium rubens. An excerpt: (§1) hydrolysis, aglycone release by HPLC on PcGlc

Substrate in data set [6]: COc1ccc([C@@H]2CC(=O)c3c(O)cc(O[C@@H]4O[C@H](CO[C@@H]5O[C@@H](C)[C@H](O)[C@@H](O)[C@H]5O)[C@@H](O)[C@H](O)[C@H]4O)cc3O2)cc1O
Nature of the data set: hydrolysis, aglycone release by HPLC. Type of data set: biochemical, Penicillium rubens.
Source text: as §1

Substrate in data set [7]: C[C@@H]1O[C@@H](OC[C@H]2O[C@@H](Oc3c(-c4ccc(O)c(O)c4)oc4cc(O)cc(O)c4c3=O)[C@H](O)[C@@H](O)[C@@H]2O)[C@H](O)[C@H](O)[C@H]1O
Nature of the data set: hydrolysis, aglycone release by HPLC. In kind it is biochemical, Penicillium rubens.
Source text: as §1

Substrate in data set [8]: O=c1c(O[C@@H]2O[C@H](CO)[C@@H](O)[C@H](O)[C@H]2O)c(-c2ccc(O)c(O)c2)oc2cc(O)cc(O)c12
Description: hydrolysis, aglycone release by HPLC. Type of data set: biochemical, Penicillium rubens.
Source text: as §1

Turning to McGlc (Mucor circinelloides), the Michaelis-Menten constant (Km) is 210 ± 90 µM in data set [1], 4800 ± 100 µM in data set [2], 120 ± 30 µM in data set [3] and 40 ± 10 µM in data set [4]. The catalytic constant (kcat) in data set [1] came to 69.1 ± 6 s⁻¹; in data set [2] it was 23 ± 1.7 s⁻¹; in data set [3] it was 22.7 ± 0.5 s⁻¹; in data set [4] it was 53.9 ± 1.9 s⁻¹. For the same molecule, the kcat/Km stood at 257000 M⁻¹ s⁻¹ in data set [1], 4800 M⁻¹ s⁻¹ in data set [2], 189000 M⁻¹ s⁻¹ in data set [3] and 1.35e+06 M⁻¹ s⁻¹ in data set [4].

B1: PcGlc (Penicillium rubens Wisconsin 54-1255) (protein)
chain: TPTSFHLSPNNNISHDYINWRTFHGRGVNLGGWLQQESTIDTSWWSTYSGGASDEWNLCAQLGSKCGPVLEHRYKTFITTRDIDTLASSGVTVLRIPTSYAAWVRVPGSQLYSGKQKEHIHRIATYAIEKYDMHIILDIHSLPGGINGLDIGEAVGHWGWYNNDTALKYSLDAVDSALHFIQFSSGHPQSYTLSPINEPVDNRDFSTFGTPAALSEAGASWVLKYLHAVIDRTKKVNPRIPVMCQGSFKPETYWSPHFDAGANIVFDEHHYYFQYSNSTSANLPEFLCQDAKKSAGDGKFPTFVGEWAIEASDNDLGLRGQNLQAGISAFGQFTRGSSYWTAKFSSNATIKGEGVKGNYWNYEEFVRMGYLDGQVEVPNYCQ
notes: secreted from recombinant Pichia pastoris KM71H, purified by cation exchange chromatography, glycosylated
Consider B1, for which the Michaelis constant (Km) came out at 290 ± 100 µM in data set [5], 380 ± 90 µM in data set [6], 210 ± 60 µM in data set [7] and 30 ± 6 µM in data set [8]. For the same molecule, the catalytic constant (kcat) in data set [5] came to 120 ± 13 s⁻¹; in data set [6], 9.3 ± 0.8 s⁻¹; in data set [7], 39.3 ± 1.2 s⁻¹; in data set [8] it was 30.3 ± 1.5 s⁻¹. The catalytic efficiency (kcat/Km) in data set [5] is 414000 M⁻¹ s⁻¹; in data set [6], 24500 M⁻¹ s⁻¹; in data set [7] it was 187000 M⁻¹ s⁻¹; in data set [8] it was 1.01e+06 M⁻¹ s⁻¹.

(Values after publication PMC8523606, “Two fungal flavonoid-specific glucosidases/rutinosidases for rutin hydrolysis and rutinoside synthesis under homogeneous and heterogeneous reaction conditions” (AMB Express, 2021).)
